# Test results from patent publication US20200087364A1 (IMMATICS BIOTECHNOLOGIES, published 2020).
# Molecular target: T1, HLA-A*01:01 (human)
# T1 construct: MHC class I monomer first loaded with a UV-sensitive peptide (not identified) that is cleaved by UV irradiation and exchanged for the tested peptide; captured on streptavidin plates, detected with anti-β2m; also called peptide-receptive MHC molecules
# Assay: UV-ligand exchange, anti-b2m ELISA
# From the text: Candidate peptides for T cell based therapies according to the present invention were further tested for their MHC binding capacity (affinity). The individual peptide-MHC complexes were produced by UV-ligand exchange, where a UV-sensitive peptide is cleaved upon UV-irradiation and exchanged with the peptide of interest as analyzed. Only peptide candidates that can effectively bind and stabilize the peptide-receptive MHC molecules prevent dissociation of the MHC complexes. To determine the yield of the exchange reaction, an ELISA was performed based on the detection of the light chain (β2m) of stabilized MHC complexes. The assay was performed as generally described in Rodenko et al. (Rodenko et al., 2006)
# 96 well MAXISorp plates (NUNC) were coated over night with 2 ug/ml streptavidin in PBS at room temperature, washed 4× and blocked for 1 h at 37° C. in 2% BSA containing blocking buffer. Refolded HLA-A*02:01/MLA-001 monomers served as standards, covering the range of 15-500 ng/ml. Peptide-MHC monomers of the UV-exchange reaction were diluted 100-fold in blocking buffer. Samples were incubated for 1 h at 37° C., washed four times, incubated with 2 ug/ml HRP conjugated anti-β2m for 1 h at 37° C., washed again and detected with TMB solution that is stopped with […]. Absorption was measured at 450 nm.
row,Binder,peptide exchange yield [%]
1,KSFDDIAKY,20 to 50
2,LMDEGAVLTL,20 to 50
3,AILHHLYFY,10 to 20
4,VAEPPVVCSY,20 to 50
5,DTLEAATSLY,20 to 50
6,YLESHGLAY,> 75
7,VMDTLGLFY,> 75
8,CVIETFHKY,50 to 75
9,FTAQLQLY,50 to 75
10,GVGFTELEY,50 to 75
11,SMIRVGTNY,20 to 50
12,GSPDAVVSY,10 to 20
13,PSEVPVDSHY,> 75
14,YTDLTTIQV,> 75
15,SIEIDHTQY,20 to 50
16,DVERIKDTY,20 to 50
17,NVKHFLNDLY,50 to 75
18,ASDDFRSKY,50 to 75
19,MTEGSTVNTEY,> 75
20,NAVDVVPSSF,10 to 20
21,AQEAAVFLTLY,50 to 75
22,HAFESNNFIY,20 to 50
23,GIEMTYETY,20 to 50

row,Binder,peptide exchange yield [%]
1,KTELETALYY,50 to 75
2,LTSEDTGAY,50 to 75
3,SLMVASLTY,20 to 50
4,EVLDSLLAQY,20 to 50
5,LLPLLVMAY,20 to 50
6,GYVCNACGLY,20 to 50
7,LSDIDSRYI,20 to 50
8,YADIHGDLL,50 to 75
9,ARLEGEIATY,20 to 50
10,FLFNDALLY,> 75
11,GTNLPTLLW,10 to 20
12,KPTEDSANVY,50 to 75
13,YRDPVFVSL,20 to 50
14,LSDNAANRY,50 to 75
15,SSERGSPIEKY,50 to 75
16,WELDSLEY,20 to 50
17,RTDEGDNRVW,20 to 50
18,STDPNIVRK,50 to 75
19,RPSSVLTIY,50 to 75
20,DCMDTEGSYM,20 to 50
21,LSSAVNPIIY,20 to 50
22,NLDHYTNAY,50 to 75
23,LPSPAATIWDY,50 to 75

row,Binder,peptide exchange yield [%]
1,AMMQEAQLAY,50 to 75
2,DTTSHTYLQY,20 to 50
3,LTDSFLLRF,> 75
4,CGPNEINHFY,20 to 50
5,ESAPKEVSRY,20 to 50
6,RYLNIVHATQLY,20 to 50
7,APDEVVALL,20 to 50
8,NSMLDPLVY,> 75
9,KSEMNVNMKY,> 75
10,DTDPLKAAGL,10 to 20
11,VTKYIAGPY,20 to 50
12,IVADDTVY,50 to 75
13,VLDSLLAQY,> 75
14,ETDWGLLKGHTY,> 75
15,TDVERIKDTY,50 to 75
16,VQDPSLPVY,20 to 50
17,DLKIDLAAQY,20 to 50
18,RINSATGQY,20 to 50
19,QITPKHNGLY,20 to 50
20,IPQDECLRY,50 to 75
21,MTDVFIDY,50 to 75
22,VTDIDELGK,50 to 75
